B1: F1*; the commonest letter at each place (parent)
chain: GAGACCGCAACTGAAAAGTTGTTATCACTTGTCGTAAGACACTTTGGATGGGTTGAAGTTCTGCACGTAGAAGCAAAAGGC

Variants of: B1
Assay: fraction ligated after 30 min (ligated reads / total reads); higher = more ligase activity
Conditions: with F1*sub RNA substrate (template-directed ligation), 42 °C
Method: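 Chip-synthesised pool of F1* ligase ribozyme variants (all single and double substitutions, single, double and triple deletions in the catalytic core and GAA bulge, plus designed variants) was transcribed with T7 and reacted as a pool with excess substrate F1*sub for 30 min at 42 C in 50 mM EPPS pH 8.5, 25 mM MgCl2. Ligated and unligated bands were separated by PAGE, barcoded by RT and deep sequenced; fraction ligated = ligated reads / total reads per variant, relative activity = FL / FL of wild type (0.826). Sequences are the DNA template of the ribozyme.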

**Q.** How did the fraction ligated turn out when T25G G31T was run?
**A.** The fraction ligated was 0.0799.

**Q.** Which fraction ligated does the source give for T25G G31A here?
**A.** Its fraction ligated is 0.0861.

**Q.** Which fraction ligated does the source give for T25G G31C here?
**A.** Its fraction ligated is 0.0618.

**Q.** For T25C T29G, which fraction ligated is on record?
**A.** Its fraction ligated is 0.783.

**Q.** How did the fraction ligated turn out when T25C T29A was run?
**A.** Its fraction ligated is 0.753.

**Q.** With T25C T29C as the variant, how does the fraction ligated read?
**A.** Its fraction ligated is 0.781.

**Q.** How did the fraction ligated turn out when C26A C42T was run?
**A.** The fraction ligated was 0.793.

**Q.** For C26A C42A, which fraction ligated is on record?
**A.** The fraction ligated was 0.773.

**Q.** For C26A C42G, which fraction ligated is on record?
**A.** The fraction ligated was 0.731.

**Q.** For C26A G38A, which fraction ligated is on record?
**A.** Its fraction ligated is 0.774.

**Q.** Which fraction ligated does the source give for C26A G38T here?
**A.** Its fraction ligated is 0.793.

**Q.** For C26A G38C, which fraction ligated is on record?
**A.** Its fraction ligated is 0.313.

**Q.** C26A A56T was tested. Which fraction ligated did it give?
**A.** Its fraction ligated is 0.14.

**Q.** How did the fraction ligated turn out when C26A A56G was run?
**A.** Its fraction ligated is 0.096.

**Q.** C26A A56C was tested. Which fraction ligated did it give?
**A.** Its fraction ligated is 0.0368.

**Q.** For T25G T35C, which fraction ligated is on record?
**A.** The fraction ligated was 0.785.

**Q.** With T25G T35G as the variant, how does the fraction ligated read?
**A.** The fraction ligated was 0.804.

**Q.** T25G T35A was tested. Which fraction ligated did it give?
**A.** The fraction ligated was 0.787.

**Q.** Which fraction ligated does the source give for T25G C40T here?
**A.** The fraction ligated was 0.732.

**Q.** T25G C40A was tested. Which fraction ligated did it give?
**A.** Its fraction ligated is 0.229.

**Q.** Which fraction ligated does the source give for T25G C40G here?
**A.** Its fraction ligated is 0.58.

**Q.** Which fraction ligated does the source give for T25C C28A here?
**A.** Its fraction ligated is 0.684.

**Q.** For T25C C28G, which fraction ligated is on record?
**A.** The fraction ligated was 0.78.

**Q.** With T25C C28T as the variant, how does the fraction ligated read?
**A.** Its fraction ligated is 0.803.

**Q.** How did the fraction ligated turn out when T25C T49A was run?
**A.** The fraction ligated was 0.777.

**Q.** T25C T49G was tested. Which fraction ligated did it give?
**A.** Its fraction ligated is 0.777.

**Q.** For T25C T49C, which fraction ligated is on record?
**A.** The fraction ligated was 0.757.

**Q.** T25C A57G was tested. Which fraction ligated did it give?
**A.** Its fraction ligated is 0.711.

**Q.** How did the fraction ligated turn out when T25C A57C was run?
**A.** Its fraction ligated is 0.563.

**Q.** With T25C A57T as the variant, how does the fraction ligated read?
**A.** The fraction ligated was 0.682.

**Q.** How did the fraction ligated turn out when C26G G34C was run?
**A.** Its fraction ligated is 0.371.

**Q.** C26G G34A was tested. Which fraction ligated did it give?
**A.** Its fraction ligated is 0.357.

**Q.** Which fraction ligated does the source give for C26G G34T here?
**A.** The fraction ligated was 0.718.

**Q.** For T25G G50A, which fraction ligated is on record?
**A.** Its fraction ligated is 0.103.

**Q.** Which fraction ligated does the source give for T25G G50T here?
**A.** The fraction ligated was 0.436.

**Q.** How did the fraction ligated turn out when T25G G50C was run?
**A.** Its fraction ligated is 0.142.

**Q.** For T25C A41T, which fraction ligated is on record?
**A.** Its fraction ligated is 0.82.

**Q.** T25C A41C was tested. Which fraction ligated did it give?
**A.** Its fraction ligated is 0.517.

**Q.** T25C A41G was tested. Which fraction ligated did it give?
**A.** Its fraction ligated is 0.757.

**Q.** With C26G G46T as the variant, how does the fraction ligated read?
**A.** Its fraction ligated is 0.417.

**Q.** With C26G G46A as the variant, how does the fraction ligated read?
**A.** The fraction ligated was 0.785.

**Q.** C26G G46C was tested. Which fraction ligated did it give?
**A.** Its fraction ligated is 0.719.

**Q.** Which fraction ligated does the source give for C26G A56C here?
**A.** The fraction ligated was 0.0241.

**Q.** How did the fraction ligated turn out when C26G A56T was run?
**A.** The fraction ligated was 0.0342.

**Q.** C26G A56G was tested. Which fraction ligated did it give?
**A.** Its fraction ligated is 0.0248.

**Q.** With C26G T30A as the variant, how does the fraction ligated read?
**A.** Its fraction ligated is 0.8.

**Q.** With C26G T30G as the variant, how does the fraction ligated read?
**A.** Its fraction ligated is 0.757.

**Q.** For C26G T30C, which fraction ligated is on record?
**A.** The fraction ligated was 0.676.

**Q.** With T25G T45G as the variant, how does the fraction ligated read?
**A.** The fraction ligated was 0.0229.

**Q.** How did the fraction ligated turn out when T25G T45A was run?
**A.** The fraction ligated was 0.0602.

**Q.** T25G T45C was tested. Which fraction ligated did it give?
**A.** The fraction ligated was 0.0153.

**Q.** With T25C G47A as the variant, how does the fraction ligated read?
**A.** The fraction ligated was 0.734.

**Q.** T25C G47T was tested. Which fraction ligated did it give?
**A.** The fraction ligated was 0.208.

**Q.** For T25C G47C, which fraction ligated is on record?
**A.** The fraction ligated was 0.0468.

**Q.** Which fraction ligated does the source give for T25G A27T here?
**A.** Its fraction ligated is 0.706.

**Q.** T25G A27G was tested. Which fraction ligated did it give?
**A.** The fraction ligated was 0.434.

**Q.** For T25G A27C, which fraction ligated is on record?
**A.** Its fraction ligated is 0.705.

**Q.** Which fraction ligated does the source give for T25C G46A here?
**A.** The fraction ligated was 0.71.

**Q.** T25C G46T was tested. Which fraction ligated did it give?
**A.** Its fraction ligated is 0.396.

**Q.** With T25C G46C as the variant, how does the fraction ligated read?
**A.** The fraction ligated was 0.474.

**Q.** For T25G T43G, which fraction ligated is on record?
**A.** The fraction ligated was 0.515.

**Q.** For T25G T43A, which fraction ligated is on record?
**A.** Its fraction ligated is 0.684.

**Q.** How did the fraction ligated turn out when T25G T43C was run?
**A.** The fraction ligated was 0.409.

**Q.** For C26G C42A, which fraction ligated is on record?
**A.** The fraction ligated was 0.767.

**Q.** For C26G C42G, which fraction ligated is on record?
**A.** The fraction ligated was 0.7.

**Q.** How did the fraction ligated turn out when C26G C42T was run?
**A.** The fraction ligated was 0.76.

**Q.** With C26G G31C as the variant, how does the fraction ligated read?
**A.** Its fraction ligated is 0.176.

**Q.** Which fraction ligated does the source give for C26G G31A here?
**A.** Its fraction ligated is 0.165.

**Q.** C26G G31T was tested. Which fraction ligated did it give?
**A.** Its fraction ligated is 0.0375.

**Q.** For C26G G50A, which fraction ligated is on record?
**A.** The fraction ligated was 0.0221.

**Q.** How did the fraction ligated turn out when C26G G50C was run?
**A.** Its fraction ligated is 0.0252.

**Q.** With C26G G50T as the variant, how does the fraction ligated read?
**A.** Its fraction ligated is 0.0691.

**Q.** How did the fraction ligated turn out when T25C T44C was run?
**A.** Its fraction ligated is 0.765.

**Q.** With T25C T44G as the variant, how does the fraction ligated read?
**A.** Its fraction ligated is 0.0249.

**Q.** How did the fraction ligated turn out when T25C T44A was run?
**A.** The fraction ligated was 0.788.

**Q.** With C26G C33G as the variant, how does the fraction ligated read?
**A.** The fraction ligated was 0.754.

**Q.** Which fraction ligated does the source give for C26G C33A here?
**A.** The fraction ligated was 0.473.

**Q.** Which fraction ligated does the source give for C26G C33T here?
**A.** The fraction ligated was 0.738.

**Q.** How did the fraction ligated turn out when C26A A57T was run?
**A.** Its fraction ligated is 0.738.

**Q.** C26A A57G was tested. Which fraction ligated did it give?
**A.** The fraction ligated was 0.804.

**Q.** How did the fraction ligated turn out when C26A A57C was run?
**A.** The fraction ligated was 0.717.

**Q.** With C26T A37C as the variant, how does the fraction ligated read?
**A.** Its fraction ligated is 0.841.

**Q.** With C26T A37G as the variant, how does the fraction ligated read?
**A.** Its fraction ligated is 0.841.
